Source: patent US20240122983A1 (SHATTUCK LABS, published 2024)
Like-named read-outs stand apart in the source and are kept apart here.

How the values were obtained:
[1] = target: T1, recombinant mouse m4-1BB protein (mouse, UniProt P20334 24-187); assay: ELISA: plate-bound m41BB (3.3ug/ml), detection anti-m41BBL (1:1000) and anti-goat IgG (1:10,000)
T1 sequence (looked up): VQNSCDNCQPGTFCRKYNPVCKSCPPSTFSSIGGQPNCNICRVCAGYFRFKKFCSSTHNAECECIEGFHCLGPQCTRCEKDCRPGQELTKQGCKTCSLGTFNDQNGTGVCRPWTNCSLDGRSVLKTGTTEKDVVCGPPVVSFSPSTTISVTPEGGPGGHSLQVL
From the text: (§1) Recombinant mFLT3L protein was used to generate a standard curve. […] A mouse whole IgG was used to generate a standard curve. […] Recombinant m4-1BBL protein was used to generate a standard curve.

[2] = target: T1, recombinant mouse m4-1BB protein; assay: Dual ELISA: capture anti-FLT3L (R&D AF427), detection with m41BB-His (Acro), tertiary anti-His/HRP (Abcam)
Description: (§2) Capture was performed with an anti-FLT3L antibody, followed by detection of the co-stimulatory domain with a his-tagged recombinant protein, and visualized using an anti-his/HRP antibody.

anti-mIgG [3] = target: T2, anti-mIgG; assay: ELISA: plate-bound anti-mIgG (10ug/ml), detection anti-mIgG-HRP (1:1000)
T2 construct: capture antibody of the mFc ELISA; also called Capture Ab: anti-mIgG(10ug/ml)
From the text: as §1
(§3) Recombinant mFLT3L protein was used to generate a standard curve. […] A mouse whole IgG was used to generate a standard curve. […] Recombinant mOX40L protein was used to generate a standard curve.

anti-mIgG [4] = target: T2, anti-mIgG; assay: as above; remark: listed apart in the source
From the text: as §1

[5] = target: T3, recombinant mouse mFLT3 protein (mouse, UniProt Q00342 28-544, limits assumed); assay: Octet biolayer interferometry, mFLT3-his captured on the sensor
T3 sequence (looked up): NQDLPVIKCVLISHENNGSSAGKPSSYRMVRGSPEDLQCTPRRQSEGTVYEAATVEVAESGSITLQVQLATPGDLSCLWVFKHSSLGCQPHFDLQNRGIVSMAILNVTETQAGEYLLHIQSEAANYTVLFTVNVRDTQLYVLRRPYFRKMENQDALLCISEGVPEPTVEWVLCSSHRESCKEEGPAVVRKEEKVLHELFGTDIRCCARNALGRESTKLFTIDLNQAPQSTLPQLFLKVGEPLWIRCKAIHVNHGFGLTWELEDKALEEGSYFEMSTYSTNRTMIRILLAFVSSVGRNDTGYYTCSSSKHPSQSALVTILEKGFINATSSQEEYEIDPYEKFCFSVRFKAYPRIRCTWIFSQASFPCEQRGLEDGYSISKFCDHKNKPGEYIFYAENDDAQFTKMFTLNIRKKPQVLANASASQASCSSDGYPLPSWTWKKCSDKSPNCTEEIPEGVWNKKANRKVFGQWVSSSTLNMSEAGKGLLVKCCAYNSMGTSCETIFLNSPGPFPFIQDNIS
From the text: Octet was used to determine on-/off-rates and binding affinities to the target receptors.

[6] = target: T4, recombinant mouse mCD40 protein (mouse, UniProt P27512 20-193, limits assumed); assay: Dual ELISA: capture anti-FLT3L (R&D AF427), detection with mCD40-His (Acro), tertiary anti-His/HRP (Abcam)
T4 sequence (looked up): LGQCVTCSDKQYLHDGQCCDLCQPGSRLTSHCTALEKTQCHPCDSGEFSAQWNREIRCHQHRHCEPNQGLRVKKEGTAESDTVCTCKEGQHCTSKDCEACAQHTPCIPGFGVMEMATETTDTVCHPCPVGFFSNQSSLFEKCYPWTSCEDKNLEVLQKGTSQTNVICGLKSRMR
Description: as §2

anti-mIgG [7] = target: T2, anti-mIgG; assay: ELISA: plate-bound anti-mIgG (10ug/ml), detection anti-mIgG-HRP (1:1000); remark: listed apart in the source
From the text: as §3

[8] = target: T5, recombinant mouse mOX40 protein (mouse, UniProt P47741 20-211, limits assumed); assay: Dual ELISA: capture anti-FLT3L (R&D AF427), detection with mOX40-His (Acro), tertiary anti-His/HRP (Abcam)
T5 sequence (looked up): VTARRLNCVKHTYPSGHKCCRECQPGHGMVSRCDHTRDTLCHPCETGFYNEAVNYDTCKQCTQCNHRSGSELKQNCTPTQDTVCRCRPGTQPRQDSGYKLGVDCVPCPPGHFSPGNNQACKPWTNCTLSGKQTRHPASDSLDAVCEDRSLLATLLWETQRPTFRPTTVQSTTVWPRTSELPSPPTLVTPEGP
Description: as §2

B1: mFLT3L-Fc-4-1BBL chimeric protein (Fc fusion, murine;mouse (printed as mFc), UniProt P49772 27-189, looked up)
chain: GTPDCYFSHSPISSNFKVKFRELTDHLLKDYPVTVAVNLQDEKHCKALWSLFLAQRWIEQLKTVAGSKMQTLLEDVNTEIHFVTSCTFQPLPECLRFVQTNISHLLKDTCTQLLALKPCIGKACQNFSRCLEVQCQPDSSTLLPPRSPIALEATELPEPRPRQVPRDCGCKPCICTVPEVSSVFIFPPKPKDVLTITLTPKVTCVVVDISKDDPEVQFSWFVDDVEVHTAQTQPREEQFNSTFRSVSELPIMHQDWLNGKEFKCRVNSAAFPAPIEKTISKTKGRPKAPQVYTIPPPKEQMAKDKVSLTCMITDFFPEDITVEWQWNGQPAENYKNTQPIMNTNGSYFVYSKLNVQKSNWEAGNTFTCSVLHEGLHNHHTEKSLSHSPGKRTEPRPALTITTSPNLGTRENNADQVTPVSHIGCPNTTQQGSPVFAKLLAKNQASLCNTTLNWHSQDGAGSSYLSQGLRYEEDKKELVVDSPGLYYVFLELKLSPTFTNTGHKVQGWVSLVLQAKPQVDDFDNLALTVELFPCSMENKLVDRSWSQLLLLKAGHRLSVGLRAYLHGAQDAYRDWELSYPNTTSFGLFLVKPDNPWE
notes: extracellular domain;domain: hinge-CH2-CH3 Fc domain; Expressed in 293 cells, purified on protein A; also called murine FLT3L-Fc-4-1BBL
[1]
  EC50 (read off the curve): ~9 nM
[2]
  EC50 (read off the curve): ~1 nM
anti-mIgG [3]
  EC50 (read off the curve): ~7 nM
anti-mIgG [4]
  EC50 (read off the curve): ~7 nM

B2: mCD40L-Fc (Acro) (Fc fusion, mouse, UniProt P27548 112-260, looked up)
fusion chain: MQRGDEDPQIAAHVVSEANSNAASVLQWAKKGYYTMKSNLVMLENGKQLTVKREGLYYVYTQVTFCSNREPSSQRPFIVGLWLKPSSGSERILLKAANTHSSSQLCEQQSVHLGGVFELQAGASVFVNVTEASQVIHRVGFSSFGLLKL
notes: soluble part fused to Fc; also called commercially available mCD40L-Fc (Acro Biosystems)
[5]
  binding result: no binding (tested: concentration not printed)

B3: mFLT3L-Fc-CD40L chimeric protein (Fc fusion, murine;mouse (printed as mFc), UniProt P49772 27-189, looked up)
chain: GTPDCYFSHSPISSNFKVKFRELTDHLLKDYPVTVAVNLQDEKHCKALWSLFLAQRWIEQLKTVAGSKMQTLLEDVNTEIHFVTSCTFQPLPECLRFVQTNISHLLKDTCTQLLALKPCIGKACQNFSRCLEVQCQPDSSTLLPPRSPIALEATELPEPRPRQVPRDCGCKPCICTVPEVSSVFIFPPKPKDVLTITLTPKVTCVVVDISKDDPEVQFSWFVDDVEVHTAQTQPREEQFNSTFRSVSELPIMHQDWLNGKEFKCRVNSAAFPAPIEKTISKTKGRPKAPQVYTIPPPKEQMAKDKVSLTCMITDFFPEDITVEWQWNGQPAENYKNTQPIMNTNGSYFVYSKLNVQKSNWEAGNTFTCSVLHEGLHNHHTEKSLSHSPGKHRRLDKVEEEVNLHEDFVFIKKLKRCNKGEGSLSLLNCEEMRRQFEDLVKDITLNKEEKKENSFEMQRGDEDPQIAAHVVSEANSNAASVLQWAKKGYYTMKSNLVMLENGKQLTVKREGLYYVYTQVTFCSNREPSSQRPFIVGLWLKPSSGSERILLKAANTHSSSQLCEQQSVHLGGVFELQAGASVFVNVTEASQVIHRVGFSSFGLLKL
notes: extracellular domain;domain: hinge-CH2-CH3 Fc domain; Expressed in 293 cells, purified on protein A; multimer when not reduced; also called murine FLT3L-Fc-CD40L; mFLT3-Fc-CD40L
[6]
  EC50 (read off the curve): ~1 nM

B4: mFLT3L-Fc-OX40L chimeric protein (Fc fusion, murine;mouse (printed as mFc), UniProt P49772 27-189, looked up)
chain: GTPDCYFSHSPISSNFKVKFRELTDHLLKDYPVTVAVNLQDEKHCKALWSLFLAQRWIEQLKTVAGSKMQTLLEDVNTEIHFVTSCTFQPLPECLRFVQTNISHLLKDTCTQLLALKPCIGKACQNFSRCLEVQCQPDSSTLLPPRSPIALEATELPEPRPRQVPRDCGCKPCICTVPEVSSVFIFPPKPKDVLTITLTPKVTCVVVDISKDDPEVQFSWFVDDVEVHTAQTQPREEQFNSTFRSVSELPIMHQDWLNGKEFKCRVNSAAFPAPIEKTISKTKGRPKAPQVYTIPPPKEQMAKDKVSLTCMITDFFPEDITVEWQWNGQPAENYKNTQPIMNTNGSYFVYSKLNVQKSNWEAGNTFTCSVLHEGLHNHHTEKSLSHSPGKSSSPAKDPPIQRLRGAVTRCEDGQLFISSYKNEYQTMEVQNNSVVIKCDGLYIIYLKGSFFQEVKIDLHFREDHNPISIPMLNDGRRIVFTVVASLAFKDKVYLTVNAPDTLCEHLQINDGELIVVQLTPGYCAPEGSYHSTVNQVPL
notes: extracellular domain;domain: hinge-CH2-CH3 Fc domain; Expressed in 293 cells, purified on protein A; multimer when not reduced; also called murine FLT3L-Fc-OX40L
anti-mIgG [7]
  EC50 (read off the curve): ~20 nM
anti-mIgG [3]
  EC50 (read off the curve): ~20 nM
[8]
  EC50 (read off the curve): ~1 nM
